Measurements published in patent CN109021104A (SHANGHAI CHEMPARTNER CO LTD; GATEWAY BIOTECHNOLOGY SHANGHAI …, dated 2018).

Biological target: T1, 人源PDGFRβ全长 (human PDGFRβ, full length, on cells) (human, UniProt P09619 33-1106)
T1 construct: whole, on cells; also called HEK293-hPDGFRβ稳定细胞株; 细胞表面的PDGFRβ
Assay: flow cytometry on HEK293-hPDGFRβ cells, Alexa488 secondary antibody

T1 sequence (P09619 33-1106): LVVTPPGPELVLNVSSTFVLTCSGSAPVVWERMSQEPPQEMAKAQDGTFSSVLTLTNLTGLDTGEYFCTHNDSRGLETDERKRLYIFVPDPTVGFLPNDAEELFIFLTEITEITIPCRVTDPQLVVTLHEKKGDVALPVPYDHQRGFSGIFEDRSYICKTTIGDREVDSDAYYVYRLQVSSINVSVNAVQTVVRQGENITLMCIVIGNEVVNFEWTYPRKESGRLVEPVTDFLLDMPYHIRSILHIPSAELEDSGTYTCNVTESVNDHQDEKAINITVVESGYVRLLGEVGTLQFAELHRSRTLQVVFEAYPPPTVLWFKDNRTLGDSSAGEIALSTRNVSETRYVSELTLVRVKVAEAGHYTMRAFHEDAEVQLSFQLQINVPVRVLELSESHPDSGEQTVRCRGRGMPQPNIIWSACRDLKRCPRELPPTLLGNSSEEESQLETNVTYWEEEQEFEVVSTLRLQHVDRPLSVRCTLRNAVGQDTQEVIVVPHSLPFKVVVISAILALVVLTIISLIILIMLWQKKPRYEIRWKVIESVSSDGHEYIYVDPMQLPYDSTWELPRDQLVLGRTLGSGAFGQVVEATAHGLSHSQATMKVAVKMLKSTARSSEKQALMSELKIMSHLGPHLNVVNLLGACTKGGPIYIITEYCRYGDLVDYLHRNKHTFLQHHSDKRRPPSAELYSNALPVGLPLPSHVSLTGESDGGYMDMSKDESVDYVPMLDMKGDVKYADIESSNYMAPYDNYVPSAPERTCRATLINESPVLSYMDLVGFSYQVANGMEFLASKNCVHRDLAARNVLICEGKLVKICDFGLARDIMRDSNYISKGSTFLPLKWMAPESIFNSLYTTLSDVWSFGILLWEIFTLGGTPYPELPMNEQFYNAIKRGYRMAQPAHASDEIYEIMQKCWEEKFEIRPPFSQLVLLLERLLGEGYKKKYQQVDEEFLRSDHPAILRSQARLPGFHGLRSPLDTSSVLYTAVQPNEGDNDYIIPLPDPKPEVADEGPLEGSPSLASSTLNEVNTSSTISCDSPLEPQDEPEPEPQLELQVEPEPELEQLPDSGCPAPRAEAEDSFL

B1: 39E10E12B3 (antibody, V domains shown)
VH: EVQLVESGGGVVQPGRSLRLSCAASGFTFSSYGMHWVRQAPGKGLEWVAVIWYDGSNKYYADSVKGRFTISRDNSKNTLYLQMNSLRAEDTAVYYCAVTGDVDYWGQGTLVTVSS
notes: Heavy-chain-only monoclonal antibody (no light chain), purified from a hybridoma made from HCAb transgenic mice; also called 重链抗体39E10E12B3; PDGFRβ抗体
Q: Does B1 bind?
A: binds
